For data set [1], the system named is T1, dCas12j-8 E100R E100R;D369A;E567A;D658A (bacteriophage (metagenome)).
T1 sequence: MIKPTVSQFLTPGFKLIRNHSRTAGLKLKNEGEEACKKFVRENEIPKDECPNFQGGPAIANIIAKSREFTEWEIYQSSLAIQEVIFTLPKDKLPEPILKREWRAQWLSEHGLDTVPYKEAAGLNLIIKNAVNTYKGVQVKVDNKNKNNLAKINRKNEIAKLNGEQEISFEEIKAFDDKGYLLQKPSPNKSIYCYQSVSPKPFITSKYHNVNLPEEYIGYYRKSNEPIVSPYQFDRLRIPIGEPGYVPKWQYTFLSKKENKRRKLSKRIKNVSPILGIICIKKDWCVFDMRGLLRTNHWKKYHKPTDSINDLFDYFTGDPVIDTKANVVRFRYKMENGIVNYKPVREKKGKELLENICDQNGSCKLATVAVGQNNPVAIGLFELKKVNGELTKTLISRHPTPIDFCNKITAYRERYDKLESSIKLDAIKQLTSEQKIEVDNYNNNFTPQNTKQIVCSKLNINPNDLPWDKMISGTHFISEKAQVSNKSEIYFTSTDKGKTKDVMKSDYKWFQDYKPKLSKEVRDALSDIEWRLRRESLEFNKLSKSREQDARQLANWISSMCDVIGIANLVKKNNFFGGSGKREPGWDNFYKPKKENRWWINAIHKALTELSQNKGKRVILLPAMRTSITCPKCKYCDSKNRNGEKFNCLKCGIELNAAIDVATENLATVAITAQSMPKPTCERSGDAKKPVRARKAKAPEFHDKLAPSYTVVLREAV
The note with it: HEK293T cells; panel 1c (compare within a panel only); scale: mean GFP / mean GFP of wild type, printed, no background subtraction.

Data set [2] has as its system T2, dCas12j-8 E258R+E157R E258R;E157R;D369A;E567A;D658A (bacteriophage (metagenome)).
T2 sequence: T1 sequence with R100E, E157R, E258R
The note with it: HEK293T cells; panel 1d (compare within a panel only); scale: mean GFP / mean GFP of wild type, printed, no background subtraction.

The test system of data set [3] is T3, dCas12j-8 E31R E31R;D369A;E567A;D658A (bacteriophage (metagenome)).
T3 sequence: T1 sequence with E31R, R100E
The note with it: HEK293T cells; panel 1c (compare within a panel only); scale: mean GFP / mean GFP of wild type, printed, no background subtraction.

In data set [4] the test system is T4, dCas12j-8 E535R E535R;D369A;E567A;D658A (bacteriophage (metagenome)).
T4 sequence: T1 sequence with R100E, E535R
The conditions noted are these: HEK293T cells; panel 1c (compare within a panel only); scale: mean GFP / mean GFP of wild type, printed, no background subtraction.

Numbering of substitutions follows the chain as printed.

In the case of “CUUUCAAGACUAAUAGAUUGCUCCUUACGAGGAGACACUCCCUAUCAGUGAUAGAG / TTNACTCCCTATCAGTGATAGAG / CTCTATCACTGATAGGGAGTNAA [TetO]”, the binding signal amounted to 0.834 in data set [1], 2.16 in data set [2], 0.82 in data set [3] and 0.495 in data set [4].

The values are drawn from article PMC12412624, “Engineered Cas12j‐8 is a Versatile Platform for Multiplexed Genome Modulation in Mammalian Cells”.
